In patent US20250002563A1 (published 2025):

Molecular target: RBD (UniProt P0DTC2 319-541)
Assay: SPR

B1: Nb21 (VHH)
VHH: QVQLVESGGGLVQAGGSLRLSCAVSGLGAHRVGWFRRAPGKEREFVAAIGANGGNTNYLDSVKGRFTISRDNAKNTIYLQMNSLKPQDTAVYYCAARDIETAEYTYWGQGTQVTVSS
B1 gave a Kd of under 1 pM.
